Target: myc-CRAF (wild type)

B1: FLAG-KSR (wild-type KSR1) (protein)
chain: MDRAALRAAAMGEKKEGGGGGAAADGGAGAAVSRALQQCGQLQKLIDISIGSLRGLRTKCSVSNDLTQQEIRTLEAKLVKYICKQQQSKLSVTPSDRTAELNSYPRFSDWLYIFNVRPEVVQEIPQELTLDALLEMDEAKAKEMLRRWGASTEECSRLQQALTCLRKVTGLGGEHKMDSGWSSTDARDSSLGPPMDMLSSLGRAGASTQGPRSISVSALPASDSPVPGLSEGLSDSCIPLHTSGRLTPRALHSFITPPTTPQLRRHAKLKPPRTPPPPSRKVFQLLPSFPTLTRSKSHESQLGNRIDDVTPMKFELPHGSPQLVRRDIGLSVTHRFSTKSWLSQVCNVCQKSMIFGVKCKHCRLKCHNKCTKEAPACRITFLPLARLRRTESVPSDINNPVDRAAEPHFGTLPKALTKKEHPPAMNLDSSSNPSSTTSSTPSSPAPFLTSSNPSSATTPPNPSPGQRDSRFSFPDISACSQAAPLSSTADSTRLDDQPKTDVLGVHEAEAEEPEAGKSEAEDDEEDEVDDLPSSRRPWRGPISRKASQTSVYLQEWDIPFEQVELGEPIGQGRWGRVHRGRWHGEVAIRLLEMDGHNQDHLKLFKKEVMNYRQTRHENVVLFMGACMNPPHLAIITSFCKGRTLHSFVRDPKTSLDINKTRQIAQEIIKGMGYLHAKGIVHKDLKSKNVFYDNGKVVITDFGLFGISGVVREERRENQLKLSHDWLCYLAPEIVREMIPGRDEDQLPFSKAADVYAFGTVWYELQARDWPFKHQPAEALIWQIGSGEGVRRVLASVSLGKEVGEILSACWAFDLQERPSFSLLMDMLERLPKLNRRLSHPGHFWKSADINSSKVMPRFERFGLGTLESGNPKM
  in vitro kinase activity towards purified MEK in KSR immunoprecipitates, phospho-MEK antibody (FIG. 1G): Treatment of cells with PLX4720 induced kinase activity towards MEK in the KSR immunoprecipitates and only occurred when KSR and CRAF were co-expressed together

From patent US20120202233
